Assay results as given in article PMC3688963, “Biochemical Characterization of Hypothetical Proteins from Helicobacter pylori” (PLoS ONE, 2013).

Experiments:
purified protein [1] = substrate: Cc1cc(=O)oc2cc(NC(=O)[C@H](CCCNC(=N)N)NC(=O)[C@@H](N)Cc3ccccc3)ccc12; assay: purified protein; details: 100 mM sodium citrate pH 4.5, 30°C, 5 mM CaCl2, 0.1% Brij
[2] = substrate: Nc1nc2c(ncn2[C@@H]2O[C@H](COP(=O)(O)OP(=O)(O)OP(=O)(O)O)[C@@H](O)[C@H]2O)c(=O)[nH]1; assay: phosphate release, malachite green; type: biochemical, Helicobacter pylori; details: 10 mM MgCl2, 10% glycerol, 100 mM sodium acetate pH 6.0, 30°C
Excerpt: phosphate release, malachite green on HP1079

[3] = substrate: Nc1nc2c(ncn2[C@@H]2O[C@H](COP(=O)(O)OP(=O)(O)OP(=O)(O)O)[C@@H](O)[C@H]2O)c(=O)[nH]1; assay: fluorimetric neopterin detection after iodine oxidation and alkaline phosphatase; type: biochemical, Helicobacter pylori; details: 100 mM sodium citrate pH 4.0, 30°C, 2.5 mM EDTA
Excerpt: fluorimetric neopterin detection after iodine oxidation and alkaline phosphatase on HP0959

purified protein [4] = substrate: Nc1ncnc2nc[nH]c12; assay: purified protein; type: biochemical, Helicobacter pylori; details: 100 mM HEPES pH 7.5, 30°C, native protein
purified protein [5] = substrate: O=[N+]([O-])c1ccc(OP(=O)(O)Oc2ccc([N+](=O)[O-])cc2)cc1; assay: purified protein; type: biochemical, Helicobacter pylori; details: 1.0 mM MnCl2, 100 mM sodium citrate pH 4.5 (4.0 in Figure 1 legend), 30°C
[6] = substrate: [H][C@@]12COP(=O)(O)O[C@@]1([H])[C@@H](O)[C@H](n1cnc3c(=O)[nH]c(N)nc31)O2; assay: alkaline phosphatase-coupled phosphate release, malachite green; type: biochemical, Helicobacter pylori; details: 0.1 mM MnCl2, pH 4.0-4.5, 30°C

B1: HP1037 (Helicobacter pylori 26695) (protein)
chain: MKGLERESHFTLNENAMFFECAYSCDNALFLQLDDRSFFITDSRYTQEAKESVQPKNGVLAEVVESSDLVQSAIDLIVKSSVKKLFFDPNQVNLQTYKRLNSALGDKVALEGVPSYHRQKRIIKNEHEIQLLKKSQALNVEAFENFAEYVKKIFDEKESLSERYLQHKVKDFLTREGVYDLSFEPILALNANASKPHALPSAKDFLKAEHSILLDMGIKYERYCSDRTRTAFFDPKDFVFKREQSFKDKERQKIYDIVKEAQEKAISGIRAGMTGKEADSLARGVISDYGYGQYFTHSTGHGIGLDIHELPYISSRSETILEEGMVFSVEPGIYIPGFFGVRIEDLVVIKNSRSELL
Purified protein [1]
  Km: 7.43 ± 0.36 mM
  Vmax: 750 µM/min
  kcat: 0.17 s⁻¹
  kcat/Km: 20 M⁻¹ s⁻¹

B2: HP1079 (Helicobacter pylori 26695) (protein)
chain: MIQSVRIKNFKNFKNTKIDGFTKLNIITGQNNAGKSNLLEALYYLVGKSMHPCTNVLEIYDNIRKEPLTSESKSLMFYGLDTKEEIQIVTTLDNNQTLDLQIKFIASENQKVIESQIIPTAEQTQMSSQLNFTLKKNNEEIYNDHLNIAKVPNFPPIPNQSGYNRQFKNFDSNQLQKLLPFESAVIIPSDVVYRQAHMIQAVSKICSNNQLEEELNKHLNQFDNNIQAISFNTNNQLKLKVKDIKEKVPLSVFGDGLKKYLHIVSAFMADNAKTIYIDEVENGLHFSRMRLLLKNTIDFINNNKDGNLQVFMTTHSQEFIEILDQVIREKDFAHQTKLFCLKQDDQYVIPRTYYGENLEYYFENEENLFG
notes: native protein captured with GTP-coated nano-particles; His6 recombinant also made
[2]
  Km: 0.58 ± 0.05 mM
  kcat: 0.0095 ± 0.002 s⁻¹
  kcat/Km: 20 M⁻¹ s⁻¹

B3: HP0959 (Helicobacter pylori 26695) (protein)
chain: MALVKEVLVVLNRLSPFELQESWDNSGLNVGSENSEFSEIVACLEITLKIALNAPQNALIITHHPLIFKPLKTLNDEIYPGNILKILIQKNVSVISMHTNFDKTHLNKHFAHALLEFDGLVEKGLMLVKENANIEFDALVKKIKSSLGVGSLACVKSSQTIKDLAFVCGSGASMFSSLKAQSCLITGDVKYHDAMIAQSLGISLIDATHYYSERGFALIVAEILHSFNYLVTIENFKNPLQII
notes: native protein captured with GTP/dihydroneopterin triphosphate-coated nano-particles (co-captured with HP0803); His6 recombinant also active
[3]
  Km: 0.040 ± 0.005 mM
  Vmax: 1420 µM/min
  kcat: 43.2 ± 0.483 s⁻¹
  kcat/Km: 1.08e+06 M⁻¹ s⁻¹

B4: HP0267 (native protein) (Helicobacter pylori 26695) (protein)
chain: MQEIIGASLVFLCNEKCEVLEDYGVVFDEKIVEIGDYQSLTLKYPHLKAQFFENSVLLPAFINAHTHFEFSNNKASFDYGSFSGWLGSVLNNGGAILENCQGAIQNAISTQLKSGVGSVGAISNHLIEVNLLKESPLNAVVFLEFLGSSYSLEKLKAFEAKFKELKDLEDKKLKAALAVHAPYSVQKDMALSVIQLAKDSQSLLSTHFLESLEELEWVENSKGWFENFYQHFLKESHFKSLYKGANDYIDMFKDTHTLFVHNQFASLEALKRIKSQVKNAFLITCPFSNRLLSGQALDLERTKEAGLSVSVATDGLSSNISLSLLDELRAFLLTHNMPLLELAKIALLGATRHGAKALALNNGEIEANKRADLSVFGFNEKFTKEQAILQFLLHAKEVECLFLGGKRVI
notes: native protein captured from H. pylori lysate with adenine-coated gold nano-particles, gel filtration; no tag
Purified protein [4]
  Km: 2.04 ± 0.16 mM
  Vmax: 3 µM/min
  kcat: 0.00783 ± 0.00217 s⁻¹
  kcat/Km: 4 M⁻¹ s⁻¹

B5: HP1042 (Helicobacter pylori 26695) (protein)
chain: MMQVYHLSHIDLDGYACQLVSKQFFKNIQCYNANYGREVSARIYEILNAIAQSKESEFLILVSDLNLNLNEAEYLQDKIQEHRLQNKNIQIQLLDHHISGKEVAESFHWYFLDINRCATKIVYEFLKKHYAILEPKNTTWLEPLVEMVNSVDIWDTQGYGFELGKVCMRMINQSSELNRFMFDDENRNYKLKLLEEVKNYLFLENAPVAYDNDLFKLKKIALGGDPDAETMDNISSNAQTHLLSLKKHDCSVYYQDKKGFLSYSMGGISVLANLFLTQNPDFDFYMDVNAKGNVSLRANGNCDVCELSQMCFNGGGHRNASGGKIDGFRESFNYRDIKEQIEEIFNNA
notes: native protein captured with cAMP-coated nano-particles; His6 recombinant also made
Purified protein [5]
  Km: 0.53 ± 0.04 mM
  Vmax: 1130 µM/min
  kcat: 18.1 ± 0.2 s⁻¹
  kcat/Km: 34100 M⁻¹ s⁻¹
[6]
  Km: 0.82 ± 0.15 mM
  Vmax: 5130 µM/min
  kcat: 15.9 ± 1.37 s⁻¹
  kcat/Km: 19500 M⁻¹ s⁻¹
